Data taken from PMC2111872.

B1: chicken erythrocyte histone H5 (natural protein)
chain: MTESLVLSPAPAKPKRVKASRRSASHPTYSEMIAAAIRAEKSRGGSSRQSIQKYIKSHYKVGHNADLQIKLSIRRLLAAGVLKQTKGVGASGSFRLAKSDKAKRSPGKKKKAVRRSTSPKKAARPRKARSPAKKPKATARKARKKSRASPKKAKKPKTVKAKSRKASKAKKVKRSKPRAKSGARKSPKKK

target: H1- and H5-depleted chicken erythrocyte chromatin (DNA-core histone complex) (chicken (endogenous in erythrocytes)); assay: co-sedimentation

stoichiometry N (linker histone molecules per nucleosome)	Molecule
2	calf thymus histone H1 (from UniProt P02253 1-213) (natural protein)
2	chicken erythrocyte histone H1 (from UniProt P09987 1-218) (natural protein)
2	B1
